In publication PMC6555819, “Comprehensive study of nuclear receptor DNA binding provides a revised framework for understanding receptor specificity” one finds binding signal data, which are given here for 14 molecules.

Residue numbers refer to the chain shown, from its start.

Sequences and labels used below:
B1: NRC3_random_hg19_59_o1 (dsDNA)
DNA 1: GCCAGTTCAAGACCAGCCTGGCCAACATGGTGAAACGCGATTGACAGCGTAGAATGAAGG
DNA 2: CCTTCATTCTACGCTGTCAATCGCGTTTCACCATGTTGGCCAGGCTGGTCTTGAACTGGC
B2: NRC3_wobSeed49_DR2_C27T_o1 (dsDNA)
DNA 1: GCCAAACTAGGTCAAGAGGTCAAAGTTCGCTTCCCGGCGATTGACAGCGTAGAATGAAGG
DNA 2: CCTTCATTCTACGCTGTCAATCGCCGGGAAGCGAACTTTGACCTCTTGACCTAGTTTGGC
B3: NRC3_wobSeed121_DR5_G18A_o1 (dsDNA)
DNA 1: GCCAAACTAGGTCACCGAAAGGTCAAAGTCCGCATGGCGATTGACAGCGTAGAATGAAGG
DNA 2: CCTTCATTCTACGCTGTCAATCGCCATGCGGACTTTGACCTTTCGGTGACCTAGTTTGGC
B4: NRC3_wobSeed73_DR3_C28T_o1 (dsDNA)
DNA 1: GCCAAACTAGGTCACAGAGGTCAAAGTTCGTGCGTAGCGATTGACAGCGTAGAATGAAGG
DNA 2: CCTTCATTCTACGCTGTCAATCGCTACGCACGAACTTTGACCTCTGTGACCTAGTTTGGC
B5: NRC3_random_hg19_6_o1 (dsDNA)
DNA 1: GCACTCAGAGAGTTGAAGTGATTTGCCCAAGACCACGCGATTGACAGCGTAGAATGAAGG
DNA 2: CCTTCATTCTACGCTGTCAATCGCGTGGTCTTGGGCAAATCACTTCAACTCTCTGAGTGC
B6: NRC3_wobSeed26_DR1_T9C_o1 (dsDNA)
DNA 1: GCTCTAGTCGGTCAAAGGTCACACACTCGAAATGCGGCGATTGACAGCGTAGAATGAAGG
DNA 2: CCTTCATTCTACGCTGTCAATCGCCGCATTTCGAGTGTGTGACCTTTGACCGACTAGAGC
B7: NRC3_random_hg19_307_o1 (dsDNA)
DNA 1: GCATGTTAGAGCTCATGGAGAAGTGTCCTATGTGATGCGATTGACAGCGTAGAATGAAGG
DNA 2: CCTTCATTCTACGCTGTCAATCGCATCACATAGGACACTTCTCCATGAGCTCTAACATGC
B8: NRC3_wobSeed41_DR1_T13C_o1 (dsDNA)
DNA 1: GCATATGTAGGTCAAGGGTCATTCAGGTTGGTTCGCGCGATTGACAGCGTAGAATGAAGG
DNA 2: CCTTCATTCTACGCTGTCAATCGCGCGAACCAACCTGAATGACCCTTGACCTACATATGC
B9: NRC3_wobSeed41_DR1_G16A_o1 (dsDNA)
DNA 1: B8 DNA 1 with C13T, G16A
DNA 2: B8 DNA 2 with C45T, G48A
B10: NRC3_wobSeed39_DR1_A19T_o1 (dsDNA)
DNA 1: GCCGAACTAGGTCAAAGGTCAGTGAAAGGCGACGTAGCGATTGACAGCGTAGAATGAAGG
DNA 2: CCTTCATTCTACGCTGTCAATCGCTACGTCGCCTTTCACTGACCTTTGACCTAGTTCGGC
B11: NRC3_wobSeed44_DR1_A18G_o1 (dsDNA)
DNA 1: GCTGAATGAGGTTAAAGGTCAGGGAACGTGGCGTCGGCGATTGACAGCGTAGAATGAAGG
DNA 2: CCTTCATTCTACGCTGTCAATCGCCGACGCCACGTTCCCTGACCTTTAACCTCATTCAGC
B12: NRC3_wobSeed38_DR1_T16A_o1 (dsDNA)
DNA 1: GCCCTGCTAGGTCAAAGGTCAGCTAAAGCAGCTCGCGCGATTGACAGCGTAGAATGAAGG
DNA 2: CCTTCATTCTACGCTGTCAATCGCGCGAGCTGCTTTAGCTGACCTTTGACCTAGCAGGGC
B13: NRC3_wobSeed89_DR3_T13C_o1 (dsDNA)
DNA 1: GCCTATGTAGGTCAAGGGGGTCATTCAGTTTGAAAGGCGATTGACAGCGTAGAATGAAGG
DNA 2: CCTTCATTCTACGCTGTCAATCGCCTTTCAAACTGAATGACCCCCTTGACCTACATAGGC
B14: NRC3_wobSeed36_DR1_T20C_o1 (dsDNA)
DNA 1: GCCCGACTGGGGCAAAGGTCACCATACTCAGTACGAGCGATTGACAGCGTAGAATGAAGG
DNA 2: CCTTCATTCTACGCTGTCAATCGCTCGTACTGAGTATGGTGACCTTTGCCCCAGTCGGGC

Sequence of RARa:RXRa (P10276 whole entry, chain 1 of 2): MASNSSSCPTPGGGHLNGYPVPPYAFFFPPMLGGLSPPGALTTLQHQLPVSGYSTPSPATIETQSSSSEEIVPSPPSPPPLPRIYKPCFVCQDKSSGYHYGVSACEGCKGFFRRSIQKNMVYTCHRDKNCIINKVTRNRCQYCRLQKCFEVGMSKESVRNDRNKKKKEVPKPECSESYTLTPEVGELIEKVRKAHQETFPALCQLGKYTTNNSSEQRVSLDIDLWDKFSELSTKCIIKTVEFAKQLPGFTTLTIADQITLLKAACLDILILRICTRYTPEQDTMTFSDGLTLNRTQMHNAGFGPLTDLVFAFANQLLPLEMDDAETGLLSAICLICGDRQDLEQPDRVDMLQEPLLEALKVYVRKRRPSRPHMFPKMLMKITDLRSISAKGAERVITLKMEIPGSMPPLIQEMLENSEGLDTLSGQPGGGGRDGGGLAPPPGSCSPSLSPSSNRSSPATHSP
Sequence of RARa:RXRa (P19793 whole entry, chain 2 of 2): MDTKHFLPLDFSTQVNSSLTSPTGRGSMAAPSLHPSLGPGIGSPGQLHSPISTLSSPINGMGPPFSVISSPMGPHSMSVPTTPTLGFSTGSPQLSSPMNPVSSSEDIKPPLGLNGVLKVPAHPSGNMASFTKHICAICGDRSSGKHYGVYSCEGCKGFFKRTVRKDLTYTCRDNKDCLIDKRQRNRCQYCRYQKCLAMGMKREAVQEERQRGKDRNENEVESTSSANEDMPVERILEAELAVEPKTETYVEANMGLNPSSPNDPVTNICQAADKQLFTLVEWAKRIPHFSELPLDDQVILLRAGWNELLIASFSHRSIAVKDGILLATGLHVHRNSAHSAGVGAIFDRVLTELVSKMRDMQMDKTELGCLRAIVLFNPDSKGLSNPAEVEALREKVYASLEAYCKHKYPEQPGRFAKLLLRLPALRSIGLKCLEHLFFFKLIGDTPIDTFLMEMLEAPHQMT
Sequence of PXR:RXRa (O75469 whole entry, chain 1 of 2): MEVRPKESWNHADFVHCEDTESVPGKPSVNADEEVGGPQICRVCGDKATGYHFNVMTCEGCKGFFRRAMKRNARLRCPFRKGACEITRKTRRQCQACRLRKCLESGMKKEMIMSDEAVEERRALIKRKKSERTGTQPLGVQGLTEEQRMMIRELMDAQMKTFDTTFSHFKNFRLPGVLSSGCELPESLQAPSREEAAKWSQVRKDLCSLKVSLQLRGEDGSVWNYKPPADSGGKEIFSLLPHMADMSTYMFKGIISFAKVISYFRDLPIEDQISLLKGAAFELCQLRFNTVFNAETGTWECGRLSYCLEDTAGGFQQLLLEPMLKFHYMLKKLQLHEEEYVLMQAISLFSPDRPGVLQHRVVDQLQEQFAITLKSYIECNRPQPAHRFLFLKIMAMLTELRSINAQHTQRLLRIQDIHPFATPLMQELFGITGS
Sequence of PXR:RXRa (P19793 whole entry, chain 2 of 2): as the sequence (P19793 whole entry, chain 2 of 2) above

The target of one series is PPARg:RXRa (Homo sapiens, UniProt P37231;P19793 full;full). As to the kind of experiment: no ligand; PBM; 180 nM : 90 nM RXRa; PBS pH 7.4, 2% milk, 0.02% Triton X-100, 1 mM DTT, BSA, 0.4 mg/ml salmon testes DNA. To be noted: tags: His kept;His cleaved; copies: 1;1; label: surface-attached array probe.
Sequence of PPARg:RXRa (P37231 29-505, chain 1 of 2): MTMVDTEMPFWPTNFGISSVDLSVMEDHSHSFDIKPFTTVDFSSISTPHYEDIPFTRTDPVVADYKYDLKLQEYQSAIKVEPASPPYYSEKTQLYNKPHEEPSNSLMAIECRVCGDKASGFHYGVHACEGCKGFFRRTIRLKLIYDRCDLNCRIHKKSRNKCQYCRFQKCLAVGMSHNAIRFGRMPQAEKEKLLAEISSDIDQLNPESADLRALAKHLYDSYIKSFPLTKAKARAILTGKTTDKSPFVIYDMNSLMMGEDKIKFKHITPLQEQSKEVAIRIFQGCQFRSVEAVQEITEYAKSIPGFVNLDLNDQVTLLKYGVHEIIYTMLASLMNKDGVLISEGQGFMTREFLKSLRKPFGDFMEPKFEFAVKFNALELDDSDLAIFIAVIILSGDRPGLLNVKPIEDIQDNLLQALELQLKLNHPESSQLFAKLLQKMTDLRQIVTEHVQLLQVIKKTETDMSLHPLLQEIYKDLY
Sequence of PPARg:RXRa (P19793 whole entry, chain 2 of 2): as the sequence (P19793 whole entry, chain 2 of 2) above
On to B1, for which the binding signal is 0.03 PBM z-score against 500 random probes.

With B2, the binding signal is 11 PBM z-score against 500 random probes.

Turning to B3, the binding signal is 10.5 PBM z-score against 500 random probes.

As to B4, the binding signal was 10.8 PBM z-score against 500 random probes.

For the molecule B5, the binding signal is 0.15 PBM z-score against 500 random probes.

For the molecule B6, the binding signal was 12.4 PBM z-score against 500 random probes.

Turning to B7, the binding signal is 0.17 PBM z-score against 500 random probes.

With B8, the binding signal is 13.1 PBM z-score against 500 random probes.

Take B9: the binding signal is 13.4 PBM z-score against 500 random probes.

Consider B10, for which the binding signal was 14 PBM z-score against 500 random probes.

For the molecule B11, the binding signal was 11.9 PBM z-score against 500 random probes.

Take B12: the binding signal was 12.7 PBM z-score against 500 random probes.

In the case of B13, the binding signal was 11.1 PBM z-score against 500 random probes.

Regarding B14, the binding signal was 12.5 PBM z-score against 500 random probes.

A further series has as its target RXRa (Homo sapiens, UniProt P19793). In words: no ligand; PBM; 180 nM; PBS pH 7.4, 2% milk, 0.02% Triton X-100, 1 mM DTT, BSA, 0.4 mg/ml salmon testes DNA. To be noted: tags: His cleaved; chain copies: 2; label: surface-attached array probe.
On to B4, for which the binding signal was 8.65 PBM z-score against 500 random probes.

For the molecule B6, the binding signal was 8.95 PBM z-score against 500 random probes.

As to B8, the binding signal is 9.04 PBM z-score against 500 random probes.

For B9, the binding signal was 9.21 PBM z-score against 500 random probes.

For B10, the binding signal is 9.27 PBM z-score against 500 random probes.

Turning to B11, the binding signal is 9.53 PBM z-score against 500 random probes.

As to B12, the binding signal was 10 PBM z-score against 500 random probes.

With B14, the binding signal was 8.25 PBM z-score against 500 random probes.

In the next series the target is FXR:RXRa (Homo sapiens, UniProt Q96RI1;P19793 full;full). As to the kind of experiment: no ligand; PBM; 270 nM : 90 nM RXRa; PBS pH 7.4, 2% milk, 0.02% Triton X-100, 1 mM DTT, BSA, 0.4 mg/ml salmon testes DNA. The settings on record: tags: His kept;His cleaved; copies: 1;1; label: surface-attached array probe. The essentials: (§1)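 Binding z-scores were set against random background probes. The data came from custom Agilent 4×180K protein-binding microarrays carrying double-stranded probes with 34-nt variable regions, incubated 1 h with ligand-free nuclear receptor dimers. Partner-specific antibodies detected binding, and scanned fluorescence was regression-normalized.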
For the molecule B2, the binding signal is 7.82 PBM z-score against 500 random probes.

The target in another series is RARb:RXRa (Homo sapiens, UniProt P10826;P19793 full;full). Described as above. The settings on record: tags: His kept;His cleaved; copies: 1;1; label: surface-attached array probe. The essentials: as §1
Sequence of RARb:RXRa (P10826 whole entry, chain 1 of 2): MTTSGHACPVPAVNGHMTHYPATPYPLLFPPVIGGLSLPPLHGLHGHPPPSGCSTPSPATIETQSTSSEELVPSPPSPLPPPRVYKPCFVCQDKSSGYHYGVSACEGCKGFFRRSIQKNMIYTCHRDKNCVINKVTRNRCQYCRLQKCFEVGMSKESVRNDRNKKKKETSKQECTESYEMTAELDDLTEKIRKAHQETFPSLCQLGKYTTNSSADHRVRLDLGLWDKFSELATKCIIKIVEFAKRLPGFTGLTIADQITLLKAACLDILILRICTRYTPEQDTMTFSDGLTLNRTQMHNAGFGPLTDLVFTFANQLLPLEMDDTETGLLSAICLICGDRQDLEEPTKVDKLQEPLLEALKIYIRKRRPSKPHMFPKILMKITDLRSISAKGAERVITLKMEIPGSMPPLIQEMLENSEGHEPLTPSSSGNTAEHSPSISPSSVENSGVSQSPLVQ
Sequence of RARb:RXRa (P19793 whole entry, chain 2 of 2): as the sequence (P19793 whole entry, chain 2 of 2) above
For B3, the binding signal was 5.67 PBM z-score against 500 random probes.

As to B10, the binding signal is 5.46 PBM z-score against 500 random probes.

Regarding B12, the binding signal was 5.62 PBM z-score against 500 random probes.

A further series has as its target VDR:RXRa (Homo sapiens, UniProt P11473;P19793 full;full). The description is as above. To be noted: tags: His kept;His cleaved; copies: 1;1; label: surface-attached array probe. The essentials: as §1
Turning to B2, the binding signal is 6.55 PBM z-score against 500 random probes.

As for B5, the binding signal is -0.28 PBM z-score against 500 random probes.

For the molecule B8, the binding signal is 6.57 PBM z-score against 500 random probes.

Regarding B9, the binding signal was 6.82 PBM z-score against 500 random probes.

As for B13, the binding signal is 8.32 PBM z-score against 500 random probes.

The next series concerns the target LXRb:RXRa (Homo sapiens, UniProt P55055;P19793 full;full). Described as above. The settings on record: tags: His kept;His cleaved; copies: 1;1; label: surface-attached array probe. The method, boiled down: as §1
Turning to B3, the binding signal is 6.47 PBM z-score against 500 random probes.

With B7, the binding signal is -0.8 PBM z-score against 500 random probes.

Consider B8, for which the binding signal is 6.03 PBM z-score against 500 random probes.

On to B9, for which the binding signal is 5.91 PBM z-score against 500 random probes.

Consider B12, for which the binding signal is 5.81 PBM z-score against 500 random probes.

For B13, the binding signal was 6.92 PBM z-score against 500 random probes.

Another series concerns the target PXR:RXRa (Homo sapiens, UniProt O75469;P19793 full;full). The series is described as above. To be noted: tags: His kept;His cleaved; copies: 1;1; label: surface-attached array probe. The essentials: as §1
Take B2: the binding signal was 6.88 PBM z-score against 500 random probes.

With B3, the binding signal is 6.93 PBM z-score against 500 random probes.

As for B4, the binding signal is 7.41 PBM z-score against 500 random probes.

In the case of B8, the binding signal was 6.6 PBM z-score against 500 random probes.

Consider B9, for which the binding signal is 6.71 PBM z-score against 500 random probes.

As to B10, the binding signal was 6.52 PBM z-score against 500 random probes.

As for B11, the binding signal is 6.68 PBM z-score against 500 random probes.

As to B12, the binding signal was 6.86 PBM z-score against 500 random probes.

As for B13, the binding signal was 6.79 PBM z-score against 500 random probes.

The target in a further series is RARa:RXRa (Homo sapiens, UniProt P10276;P19793 full;full). Described as above. To be noted: tags: His kept;His cleaved; copies: 1;1; label: surface-attached array probe. The essentials:
as §1
For the molecule B1, the binding signal was -0 PBM z-score against 500 random probes.

Consider B2, for which the binding signal is 8.47 PBM z-score against 500 random probes.

For the molecule B3, the binding signal is 8.55 PBM z-score against 500 random probes.

Turning to B4, the binding signal is 8.8 PBM z-score against 500 random probes.

Consider B5, for which the binding signal was 0.23 PBM z-score against 500 random probes.

With B6, the binding signal was 8.22 PBM z-score against 500 random probes.

B7: the binding signal is -0.77 PBM z-score against 500 random probes.

Take B8: the binding signal is 7.96 PBM z-score against 500 random probes.

For the molecule B9, the binding signal was 8.42 PBM z-score against 500 random probes.

As for B10, the binding signal was 8.51 PBM z-score against 500 random probes.

With B11, the binding signal is 9.15 PBM z-score against 500 random probes.

As to B12, the binding signal is 8.86 PBM z-score against 500 random probes.

In the case of B13, the binding signal was 7.29 PBM z-score against 500 random probes.

As for B14, the binding signal was 7.41 PBM z-score against 500 random probes.

In another series the target is RARg:RXRa (Homo sapiens, UniProt P13631;P19793 full;full). The description is as above. The settings on record: tags: His kept;His cleaved; copies: 1;1; label: surface-attached array probe. The essentials:
as §1
On to B6, for which the binding signal is 8.36 PBM z-score against 500 random probes.

For the molecule B10, the binding signal was 8.09 PBM z-score against 500 random probes.

Take B12: the binding signal was 8.54 PBM z-score against 500 random probes.

A further series concerns the target PPARa:RXRa (Homo sapiens, UniProt Q07869;P19793 full;full). Described as above. The settings on record: tags: GST kept;His cleaved; copies: 1;1; label: surface-attached array probe. The method, boiled down:
as §1
As for B2, the binding signal is 6.92 PBM z-score against 500 random probes.

Consider B3, for which the binding signal was 6.77 PBM z-score against 500 random probes.

On to B6, for which the binding signal is 6.91 PBM z-score against 500 random probes.

For the molecule B8, the binding signal was 7.55 PBM z-score against 500 random probes.

For the molecule B9, the binding signal is 7.09 PBM z-score against 500 random probes.

For the molecule B10, the binding signal was 7.58 PBM z-score against 500 random probes.

Regarding B11, the binding signal was 6.96 PBM z-score against 500 random probes.

With B12, the binding signal was 6.82 PBM z-score against 500 random probes.

For B13, the binding signal is 6.84 PBM z-score against 500 random probes.

Take B14: the binding signal was 6.53 PBM z-score against 500 random probes.

The target of the next series is LXRa:RXRa (Homo sapiens, UniProt Q13133;P19793 full;full). Described as above. To be noted: tags: His kept;His cleaved; copies: 1;1; label: surface-attached array probe. The essentials: as §1
Sequence of LXRa:RXRa (Q13133 whole entry, chain 1 of 2): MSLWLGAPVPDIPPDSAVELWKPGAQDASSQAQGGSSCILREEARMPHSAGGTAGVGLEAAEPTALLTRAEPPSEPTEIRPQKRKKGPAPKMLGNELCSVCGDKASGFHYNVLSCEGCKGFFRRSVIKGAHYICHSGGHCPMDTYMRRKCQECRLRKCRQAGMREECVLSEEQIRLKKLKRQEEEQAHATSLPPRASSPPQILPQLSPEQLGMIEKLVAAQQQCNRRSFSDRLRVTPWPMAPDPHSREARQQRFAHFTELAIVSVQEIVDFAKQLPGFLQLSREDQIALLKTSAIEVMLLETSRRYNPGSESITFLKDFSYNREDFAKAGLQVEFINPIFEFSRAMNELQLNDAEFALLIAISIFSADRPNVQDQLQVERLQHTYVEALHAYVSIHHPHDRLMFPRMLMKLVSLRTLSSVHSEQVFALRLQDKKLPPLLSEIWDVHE
Sequence of LXRa:RXRa (P19793 whole entry, chain 2 of 2): as the sequence (P19793 whole entry, chain 2 of 2) above
For B1, the binding signal is 0.49 PBM z-score against 500 random probes.

For B3, the binding signal was 6.91 PBM z-score against 500 random probes.

Turning to B6, the binding signal was 6.67 PBM z-score against 500 random probes.
